The chains are these.
B1: PsFcγRIIa (recombinant soluble human FcγRIIa protein produced in baculovirus-infected Sf-21 cells) (receptor)
chain: APPKAVLKLEPPWINVLQEDSVTLTCQGARSPESDSIQWFHNGNLIPTHTQPSYRFKANNNDSGEYTCQTGQTSLSDPVHLTVLFEWLVLQTPHLEFQEGETIMLRCHSWKDKPLVKVTFFQNGKSQKFSHLDPTFSIPQANHSHSGDYHCTGNIGYTLFSSKPVTITVQV
notes: Amplified from FcγRIIa LR cDNA; also called PsFc.RIIa; soluble FcγRIIa

Experiment [1] concerns the target T1, monomeric human IgG3 (human, UniProt P01860-1 1-377).
T1 construct: Immobilised by amine coupling on a CM5 chip
The experiment in a line: SPR equilibrium, two site fit, immobilised IgG3; 50% of the sites. As to the method: (§1) About 4000 to about 6000 response units (RU) of monomeric human immunoglobulin subclasses IgG1, IgG2, IgG3, and IgE (50 ug/ml of each) were covalently coupled to separate carboxymethylated dextran surface of each CM5 sensor-chips (available from BIAcore, Uppsala, Sweden) using a amine coupling kit (available from BIAcore), according to manufacturer's methods. […] Following administration of the protein, the immunoglobulin surface was regenerated on each chip using a buffer containing 50 mM diethylamine pH 11.5, and 1 M NaCl. […] Data points obtained from the IgE channels were subtracted to correct for refractive index differences.

The target in experiment [2] is T2, monomeric human IgG1 (human).
T2 construct: Immobilised by amine coupling on a CM5 chip
In words: SPR equilibrium, two site fit, immobilised IgG1; about 90% of the sites. How it is done:
as §1

The target of experiment [3] is T2, monomeric human IgG1. In words: SPR equilibrium, two site fit, immobilised IgG1; remaining 10% of the sites. As to the method:
as §1

The target of experiment [4] is T1, monomeric human IgG3. The experiment in a line: SPR equilibrium, two site fit, immobilised IgG3; remaining 50% of the sites. As to the method: as §1
Experiment [5] has as its target B1. The experiment in a line: SPR; FcγRIIa (50 µg/mL) premixed with a range of hexapeptide concentrations, passed over immobilised IgG1; against no peptide. As to the method:
(§2) At the conclusion of the concentration dependence measurements all surfaces were regenerated using 50 mM diethylamine (pH 11.5), 1 M NaCl. The total response measured for each concentration of peptide was determined and plotted against the peptide concentration. The non-specific binding responses (IgE channel) were subtracted from binding to IgG1 or IgG3.
(In SPR one partner is held on a chip, and binding of the other changes the refractive index at the surface.)

The target in experiment [6] is B1. The experiment in a line: SPR; FcγRIIa (50 µg/mL) premixed with a range of hexapeptide concentrations, passed over immobilised IgG3; against no peptide. As to the method:
as §2

T1 sequence (P01860 other isoform, or with tags, fused parts or gaps): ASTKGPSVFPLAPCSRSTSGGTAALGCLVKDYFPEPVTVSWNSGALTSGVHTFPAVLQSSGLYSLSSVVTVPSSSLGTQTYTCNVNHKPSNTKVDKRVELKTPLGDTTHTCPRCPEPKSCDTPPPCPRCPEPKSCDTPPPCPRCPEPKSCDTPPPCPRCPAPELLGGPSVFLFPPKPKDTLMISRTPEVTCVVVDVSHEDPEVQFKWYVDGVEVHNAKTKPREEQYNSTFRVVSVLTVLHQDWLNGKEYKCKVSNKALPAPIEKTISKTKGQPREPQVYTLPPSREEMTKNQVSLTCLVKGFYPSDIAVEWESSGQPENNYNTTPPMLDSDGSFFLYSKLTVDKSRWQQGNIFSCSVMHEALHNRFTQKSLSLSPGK

Take B1: the Ka was roughly 2.7e+06 M⁻¹ with monomeric human IgG3 [1], roughly 2.1e+06 M⁻¹ with monomeric human IgG1 [2], roughly 23000 M⁻¹ with monomeric human IgG1 [3] and roughly 12000 M⁻¹ in the experiment with monomeric human IgG3 [4].
Consider Ac-FQNGKS-NH2 [acetylated hexapeptide of sequence FQNGKS (Ac-Phe-Gln-Asn-Gly-Lys-Ser-NH2)], for which the “fold enhancement of FcγRIIa binding to IgG1” value in experiment [5] amounted to 4 fold. Besides, the “fold enhancement of FcγRIIa binding to IgG3” value in experiment [6] was 1.6 fold.

The values are drawn from patent US20060057144A1 (published 2006).
